± gives the uncertainty stated by the source.
B1: Bromodomain adjacent to zinc finger domain protein 2B, residues 1927 to 1982; numbered along this chain, Q9UIF8 (parent)
chain: KSIMKVYCQICRKGDNEELLLLCDGCDKGCHTYCHRPKITTIPDGDWFCPACIAKA

Variants of: B1
Assay: abundance fitness (aPCA) (normalised: wild type 0, dead -1); higher = more abundant; growth selection in yeast, the domain comes from the species named
Conditions: Homo sapiens

Abundance fitness, by site and new letter:
D46: F -0.334 ± 0.15 | Y -0.375 ± 0.17 | W -0.582 ± 0.16 | S -0.006 ± 0.096 | V -0.046 ± 0.088 | G -0.031 ± 0.083 | M -0.218 ± 0.13 | L -0.233 ± 0.099 | Q 0.117 ± 0.14 | H -0.122 ± 0.12 | K 0.033 ± 0.13 | E 0.028 ± 0.11 | A -0.146 ± 0.089 | T -0.094 ± 0.096 | N -0.009 ± 0.12 | P 0.058 ± 0.12 | I -0.305 ± 0.16 | C -0.06 ± 0.14
I42: P -0.043 ± 0.11 | T 0.011 ± 0.1 | S -0.065 ± 0.085 | R -0.054 ± 0.073 | D -0.209 ± 0.24 | V -0.039 ± 0.099 | E 0.069 ± 0.14 | Q -0.201 ± 0.11 | H -0.235 ± 0.13 | A 0.042 ± 0.1 | G -0.048 ± 0.077 | L -0.015 ± 0.08 | M 0.049 ± 0.15 | Y -0.093 ± 0.18 | F -0.007 ± 0.2 | K 0.009 ± 0.1
R36: K -0.168 ± 0.13 | D -0.03 ± 0.11 | L 0.06 ± 0.081 | P -0.078 ± 0.1 | G -0.015 ± 0.068 | A -0.007 ± 0.074 | Q -0.1 ± 0.12 | S 0.065 ± 0.074 | F -0.154 ± 0.12 | W -0.004 ± 0.12 | H 0.021 ± 0.14 | C 0.008 ± 0.12 | V 0.053 ± 0.07 | Y -0.252 ± 0.12 | I -0.175 ± 0.14 | E 0.058 ± 0.1 | T 0.078 ± 0.11
H35: S -0.105 ± 0.077 | V -0.052 ± 0.083 | P -0.093 ± 0.11 | N -0.09 ± 0.15 | G -0.102 ± 0.075 | F -0.109 ± 0.11 | Y -0.201 ± 0.1 | Q -0.09 ± 0.097 | L 0.027 ± 0.065 | C -0.084 ± 0.14 | K 0.024 ± 0.12 | E -0.169 ± 0.093 | R -0.137 ± 0.073 | D 0.001 ± 0.14 | I -0.019 ± 0.19 | W -0.18 ± 0.091 | M 0.002 ± 0.11 | A 0.021 ± 0.075
Y33: W -0.178 ± 0.094 | T 0.089 ± 0.1 | E -0.058 ± 0.09 | P -0.323 ± 0.09 | F -0.154 ± 0.17 | L -0.202 ± 0.07 | S -0.086 ± 0.077 | N -0.213 ± 0.16 | R -0.053 ± 0.069 | H -0.111 ± 0.14 | C -0.289 ± 0.13 | D -0.123 ± 0.11 | K -0.123 ± 0.1 | I -0.223 ± 0.18 | V -0.178 ± 0.071 | A -0.105 ± 0.074
G45: K -0.425 ± 0.41 | V -0.139 ± 0.23 | M -0.371 ± 0.47 | R 0.023 ± 0.17 | C -0.235 ± 0.4 | D -0.068 ± 0.13 | S -0.005 ± 0.13 | W -0.728 ± 0.32 | A -0.154 ± 0.2
C34: G -0.495 ± 0.07 | K -0.561 ± 0.11 | L -0.763 ± 0.079 | Y -0.659 ± 0.15 | W -0.895 ± 0.11 | F -0.766 ± 0.12 | A -0.688 ± 0.088 | T -0.694 ± 0.1 | S -0.584 ± 0.08 | M -0.672 ± 0.095 | N -0.818 ± 0.19 | D -0.63 ± 0.14 | V -0.771 ± 0.071 | Q -0.731 ± 0.12 | P -0.675 ± 0.11 | I -0.961 ± 0.19 | H -0.216 ± 0.16
C30: M 0.069 ± 0.09 | A -0.101 ± 0.08 | Q 0.024 ± 0.11 | K -0.076 ± 0.099 | P -0.459 ± 0.12 | H -0.016 ± 0.15 | W 0.031 ± 0.075 | R -0.023 ± 0.064 | T 0.039 ± 0.096 | F -0.002 ± 0.11 | Y 0.004 ± 0.11 | I 0.15 ± 0.14 | L -0.064 ± 0.068 | G -0.009 ± 0.063 | E 0.034 ± 0.083 | V -0.071 ± 0.074 | S -0.011 ± 0.077 | N -0.208 ± 0.13 | D -0.238 ± 0.11
K38: H -0.153 ± 0.1 | E -0.186 ± 0.11 | Y -0.148 ± 0.12 | C -0.128 ± 0.1 | P -0.122 ± 0.092 | N -0.139 ± 0.12 | F -0.147 ± 0.16 | M -0.09 ± 0.11 | R -0.122 ± 0.074 | I -0.071 ± 0.12 | V -0.104 ± 0.088 | S -0.059 ± 0.072 | T -0.016 ± 0.092 | W -0.216 ± 0.098 | L 0.015 ± 0.077 | Q -0.219 ± 0.13
H31: R -0.601 ± 0.069 | Y -0.573 ± 0.1 | W -0.856 ± 0.1 | K -0.5 ± 0.13 | F -0.954 ± 0.2 | A -0.683 ± 0.083 | Q -0.622 ± 0.11 | I -0.817 ± 0.16 | G -0.471 ± 0.063 | L -0.926 ± 0.1 | C -0.483 ± 0.13 | P -0.556 ± 0.1 | M -0.71 ± 0.11 | V -0.624 ± 0.073 | D -0.386 ± 0.12 | E -0.753 ± 0.12 | S -0.639 ± 0.088 | N -0.553 ± 0.14 | T -0.446 ± 0.1
I39: F -0.164 ± 0.15 | K -0.111 ± 0.1

— the Human Domainome abundance scans (Beltran et al. 2025)
